# System: Escherichia coli TOP10
# Assay: shrunken log2 fold change of peptide-encoding DNA abundance (4.5 h post-induction vs induction); higher = less antimicrobial activity (less host growth inhibition)
# Settings: time post-induction: 4.5 h; library: site-saturation at positions 5, 18, 19, 20
# 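Note: peptides expressed intracellularly from a pBAD plasmid library in pooled LB shake-flask culture, induced with 0.3% L-arabinose, DNA abundance read by NGS, three biological replicates, DESeq2 with apeglm shrinkage.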
row,Sequence,shrunken log2 fold change
1,RRIRVRPPRLPRPRPRPVWLPRP,0.276
2,RRIRKRPPRLPRPRPRPNKYPRP,-0.168
3,RRIRGRPPRLPRPRPRPHNKPRP,-0.09
4,RRIRQRPPRLPRPRPRPAEGPRP,0.045
5,RRIRMRPPRLPRPRPRPHKEPRP,0.0586
6,RRIRGRPPRLPRPRPRPSVPPRP,0.215
7,RRIRIRPPRLPRPRPRPNRMPRP,-0.0394
8,RRIRDRPPRLPRPRPRPNGIPRP,0.012
9,RRIRKRPPRLPRPRPRPQFGPRP,0.0962
10,RRIRVRPPRLPRPRPRPEGAPRP,0.451
11,RRIRRRPPRLPRPRPRPPFWPRP,0.959
12,RRIRPRPPRLPRPRPRPAEAPRP,0.103
13,RRIRIRPPRLPRPRPRPERQPRP,0.0212
14,RRIRPRPPRLPRPRPRPPQCPRP,0.228
15,RRIRARPPRLPRPRPRPHARPRP,0.156
16,RRIRFRPPRLPRPRPRPKLGPRP,-0.0528
17,RRIRFRPPRLPRPRPRPYHFPRP,-0.194
18,RRIRHRPPRLPRPRPRPRSSPRP,-0.00605
19,RRIRFRPPRLPRPRPRPQLIPRP,-0.313
20,RRIRARPPRLPRPRPRPHAQPRP,0.122
21,RRIRIRPPRLPRPRPRPTFVPRP,-0.582
22,RRIRCRPPRLPRPRPRPQNLPRP,-0.49
23,RRIRWRPPRLPRPRPRPRSIPRP,-0.006
24,RRIRQRPPRLPRPRPRPCLIPRP,-0.0017
25,RRIRFRPPRLPRPRPRPSLQPRP,-0.31

row,Sequence,shrunken log2 fold change
1,RRIRKRPPRLPRPRPRPFCKPRP,0.326
2,RRIRIRPPRLPRPRPRPSGSPRP,-0.17
3,RRIRIRPPRLPRPRPRPATDPRP,-0.161
4,RRIRDRPPRLPRPRPRPVEAPRP,0.441
5,RRIRGRPPRLPRPRPRPRQMPRP,-0.0496
6,RRIRDRPPRLPRPRPRPTMGPRP,1.05
7,RRIRTRPPRLPRPRPRPPKAPRP,0.0856
8,RRIRIRPPRLPRPRPRPGMKPRP,-0.126
9,RRIRGRPPRLPRPRPRPETDPRP,1.34
10,RRIRPRPPRLPRPRPRPFNKPRP,-0.468
11,RRIRHRPPRLPRPRPRPANYPRP,-0.00316
12,RRIRVRPPRLPRPRPRPGMKPRP,-1.14
13,RRIRTRPPRLPRPRPRPIPQPRP,0.284
14,RRIRVRPPRLPRPRPRPVKLPRP,-0.407
15,RRIRQRPPRLPRPRPRPCEHPRP,0.0413
16,RRIRCRPPRLPRPRPRPLNWPRP,0.0486
17,RRIRERPPRLPRPRPRPIYIPRP,-0.138
18,RRIRKRPPRLPRPRPRPIFGPRP,2.55
19,RRIRKRPPRLPRPRPRPPDAPRP,1.35
20,RRIRPRPPRLPRPRPRPGGGPRP,0.728
21,RRIRCRPPRLPRPRPRPQPNPRP,0.0742
22,RRIRGRPPRLPRPRPRPQIYPRP,0.185
23,RRIRARPPRLPRPRPRPQSDPRP,0.0175
24,RRIRPRPPRLPRPRPRPVYIPRP,-0.684
25,RRIRFRPPRLPRPRPRPYRVPRP,-0.702

row,Sequence,shrunken log2 fold change
1,RRIRERPPRLPRPRPRPPHPPRP,-0.0298
2,RRIRRRPPRLPRPRPRPSMYPRP,-0.345
3,RRIRDRPPRLPRPRPRPWIDPRP,0.151
4,RRIRNRPPRLPRPRPRPPIDPRP,-0.306
5,RRIRRRPPRLPRPRPRPKQSPRP,0.143
6,RRIRWRPPRLPRPRPRPKGDPRP,0.0616
7,RRIRYRPPRLPRPRPRPINWPRP,-0.446
8,RRIRSRPPRLPRPRPRPVAWPRP,0.0469
9,RRIRKRPPRLPRPRPRPKHHPRP,0.122
10,RRIRKRPPRLPRPRPRPQHYPRP,-0.0715
11,RRIRLRPPRLPRPRPRPCPTPRP,0.0726
12,RRIRCRPPRLPRPRPRPDSMPRP,-0.0886
13,RRIRFRPPRLPRPRPRPMCWPRP,-0.189
14,RRIRSRPPRLPRPRPRPAWVPRP,0.441
15,RRIRVRPPRLPRPRPRPHREPRP,-0.223
16,RRIRMRPPRLPRPRPRPTHTPRP,1.03
17,RRIRTRPPRLPRPRPRPYAGPRP,-0.14
18,RRIRSRPPRLPRPRPRPMQPPRP,0.0538
19,RRIRDRPPRLPRPRPRPLNWPRP,0.0327
20,RRIRCRPPRLPRPRPRPDTWPRP,-0.234
21,RRIRPRPPRLPRPRPRPLMLPRP,-0.21
22,RRIRARPPRLPRPRPRPQLGPRP,-0.0732
23,RRIRARPPRLPRPRPRPTYLPRP,-0.023
24,RRIRDRPPRLPRPRPRPPGNPRP,0.21
25,RRIRKRPPRLPRPRPRPPNGPRP,0.189

# From the supplement of paper PMC9112550, “Optimization of the antimicrobial peptide Bac7 by deep mutational scanning” (BMC Biology, 2022)
